How the values were obtained:
[1] = molecular target: AcrIE9 (Pseudomonas aeruginosa); test: SEC; analytical SEC of the pooled dimeric species of AcrIE9 alone, Superdex 200 increase 10/300 GL; 150 mM NaCl, 2 mM DTT, 5% glycerol, 20 mM HEPES pH 7.0
[2] = molecular target: AcrIE9 (Pseudomonas aeruginosa); test: SEC; preparative SEC of AcrIE9 during purification, HiLoad 26/600 Superdex 75 pg; 300 mM NaCl, 5% glycerol, 2 mM DTT, 20 mM HEPES pH 7.0

stoichiometry N [1]: 2
stoichiometry N [2]: 2
Substance: AcrIE9 (natural protein)
